Test results taken from US20110020273A1 (published 2011).

Biological target: T1, CD20 (human, UniProt P11836 1-297)
T1 sequence (looked up): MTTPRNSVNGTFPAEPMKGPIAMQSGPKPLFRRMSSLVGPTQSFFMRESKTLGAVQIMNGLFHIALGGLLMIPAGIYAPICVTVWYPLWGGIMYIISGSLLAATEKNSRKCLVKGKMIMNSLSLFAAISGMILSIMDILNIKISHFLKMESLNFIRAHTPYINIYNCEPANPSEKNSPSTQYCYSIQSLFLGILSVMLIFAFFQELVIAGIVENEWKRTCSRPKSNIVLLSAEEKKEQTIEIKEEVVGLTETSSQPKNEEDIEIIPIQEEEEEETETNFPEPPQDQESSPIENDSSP
Assay: cell-based or functional assay

B1: veltuzumab (antibody, V domains shown)
VH: QVQLQQSGAEVKKPGSSVKVSCKASGYTFTSYNMHWVKQAPGQGLEWIGAIYPGMGDTSYNQKFKGKATLTADESTNTAYMELSSLRSEDTAFYYCARSTYYGGDWYFDVWGQGTTVTVSS
VL: DIQLTQSPSSLSASVGDRVTMTCRASSSVSYIHWFQQKPGKAPKPWIYATSNLASGVPVRFSGSGSGTDYTFTISSLQPEDIATYYCQQWTSNPPTFGGGTKLEIK
EC50, in vitro proliferation of Jeko-1 cells: 1.5 nM
